Twelve molecules from patent EP4585616A1, “ANTIBODY CAPABLE OF SPECIFICALLY BINDING TO ROR1, […] THEREOF, AND PREPARATION METHOD THEREFOR AND USE THEREOF” (Hefei Institutes of Physical Science, Chinese Academy of …, priority 2022, dated 2024) can be followed below.

A word on the EC50: it is the concentration needed to bring the measured effect to its halfway point. Low values mean higher potency in that assay, high ones lower potency in that assay.

Assay [1] concerns the target T1, human ROR1 on the surface of tumor cells (human, UniProt Q01973 30-937).
T1 construct: whole, on cells; also called ROR1 on the cell surface; tumor cell ROR1
Nature of the assay: FACS, NCI-H226 cells.

Assay [2] has as its target T1, human ROR1 on the surface of tumor cells. Nature of the assay: FACS, MDA-MB-231 cells.
Assay [3] has as its target T2, Extracellular domain of human ROR1 protein (ROR1-ECD) (human, UniProt Q01973 30-403).
T2 construct: Expressed in HEK293T cells; also called human ROR1-ECD; purified human ROR1 protein extracellular segment
Put plainly: ELISA, plate-coated ROR1-ECD. (In general: ELISA stands for enzyme-linked immunosorbent assay.)

Assay [4] has as its target T3, ROR1 extracellular segment sequence (including transmembrane) on CHO cells (human, UniProt Q01973 30-472).
T3 construct: Cloned into pCDNA3.1 and transfected into CHO cells; also called CHO-ROR1 (extracellular segment); CHO-ROR1
Nature of the assay: FACS, CHO-ROR1 (extracellular segment) cells. Background: In flow cytometry, cells or beads pass a laser one at a time.

Assay [5] deals with T4, ROR1 extracellular segment with Kringle domain removed on CHO cells (human, UniProt Q01973 30-472, limits assumed).
T4 construct: Transfected into CHO cells; also called CHO-ROR1 (with Kringle domain removed)
T4 sequence (Q01973 other isoform, or with tags, fused parts or gaps limits assumed): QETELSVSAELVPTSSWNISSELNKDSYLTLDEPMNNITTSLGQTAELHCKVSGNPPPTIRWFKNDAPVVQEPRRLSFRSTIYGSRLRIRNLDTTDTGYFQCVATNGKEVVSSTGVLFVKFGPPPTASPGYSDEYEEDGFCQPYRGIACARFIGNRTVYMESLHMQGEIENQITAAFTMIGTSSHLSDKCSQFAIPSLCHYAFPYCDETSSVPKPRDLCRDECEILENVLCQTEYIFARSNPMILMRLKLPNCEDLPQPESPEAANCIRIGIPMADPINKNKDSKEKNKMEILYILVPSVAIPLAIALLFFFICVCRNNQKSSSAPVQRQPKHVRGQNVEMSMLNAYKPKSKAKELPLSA
Put plainly: FACS, CHO-ROR1 (with Kringle domain removed) cells.

Assay [6] concerns the target T5, ROR1 extracellular segment with Frizzled domain removed on CHO cells (human, UniProt Q01973 30-472, limits assumed).
T5 construct: Transfected into CHO cells; also called CHO-ROR1 (with Frizzled domain removed)
Put plainly: FACS, CHO-ROR1 (with Frizzled domain removed) cells.

In assay [7] the target is T1, human ROR1 on the surface of tumor cells. Put plainly: FACS, NCI-H226 cells. This is another data set of the same source.
Assay [8] has the same target. Nature of the assay: FACS, MDA-MB-231 cells. This is another data set of the same source.
For assay [9], the target named is T2, Extracellular domain of human ROR1 …. Nature of the assay: ELISA, plate-coated ROR1-ECD. The source holds these as a separate data set.
The target in assay [10] is T3, ROR1 extracellular segment sequence …. Put plainly: FACS, CHO-ROR1 (extracellular segment) cells. This is another data set of the same source.
The target is the same in assay [11]. Nature of the assay: FACS, ROR1 transferred onto CHO cell surface (summing up of Example 9).
Assay [12] deals with T1, human ROR1 on the surface of tumor cells. Nature of the assay: cell-based or functional assay.
For assay [13], the target named is T6, ROR1 extracellular segment with Ig-like domain removed on CHO cells (human, UniProt Q01973 30-472, limits assumed).
T6 construct: Transfected into CHO cells; also called CHO-ROR1 (with Ig-like domain removed)
T6 sequence (Q01973 other isoform, or with tags, fused parts or gaps limits assumed): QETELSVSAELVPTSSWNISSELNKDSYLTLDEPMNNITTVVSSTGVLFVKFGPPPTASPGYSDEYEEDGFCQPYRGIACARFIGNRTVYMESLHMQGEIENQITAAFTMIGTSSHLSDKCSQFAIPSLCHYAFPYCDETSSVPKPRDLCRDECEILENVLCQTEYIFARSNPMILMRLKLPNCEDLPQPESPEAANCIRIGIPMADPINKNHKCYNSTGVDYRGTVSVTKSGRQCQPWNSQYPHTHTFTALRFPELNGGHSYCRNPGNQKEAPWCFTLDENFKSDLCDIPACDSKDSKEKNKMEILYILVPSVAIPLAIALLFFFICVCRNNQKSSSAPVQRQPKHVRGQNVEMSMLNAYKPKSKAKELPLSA
Nature of the assay: FACS, CHO-ROR1 (with Ig-like domain removed) cells.

Assay [14] concerns the target T2, Extracellular domain of human ROR1 …. Put plainly: ELISA, purified ROR1-ECD.

T3 sequence (Q01973 30-472 limits assumed): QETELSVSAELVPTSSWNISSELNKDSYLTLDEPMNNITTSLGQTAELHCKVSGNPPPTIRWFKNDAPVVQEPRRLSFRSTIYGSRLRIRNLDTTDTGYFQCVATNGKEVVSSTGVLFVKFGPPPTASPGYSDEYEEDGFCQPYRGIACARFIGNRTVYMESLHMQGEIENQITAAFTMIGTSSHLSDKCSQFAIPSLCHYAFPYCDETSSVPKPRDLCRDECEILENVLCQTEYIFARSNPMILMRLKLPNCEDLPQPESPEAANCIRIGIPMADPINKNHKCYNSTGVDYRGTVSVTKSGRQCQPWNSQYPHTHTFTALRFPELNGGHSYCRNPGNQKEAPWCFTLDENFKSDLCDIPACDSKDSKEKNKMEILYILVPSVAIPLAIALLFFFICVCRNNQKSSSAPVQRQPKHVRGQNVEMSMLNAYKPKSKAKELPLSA
T1 sequence (Q01973 30-937): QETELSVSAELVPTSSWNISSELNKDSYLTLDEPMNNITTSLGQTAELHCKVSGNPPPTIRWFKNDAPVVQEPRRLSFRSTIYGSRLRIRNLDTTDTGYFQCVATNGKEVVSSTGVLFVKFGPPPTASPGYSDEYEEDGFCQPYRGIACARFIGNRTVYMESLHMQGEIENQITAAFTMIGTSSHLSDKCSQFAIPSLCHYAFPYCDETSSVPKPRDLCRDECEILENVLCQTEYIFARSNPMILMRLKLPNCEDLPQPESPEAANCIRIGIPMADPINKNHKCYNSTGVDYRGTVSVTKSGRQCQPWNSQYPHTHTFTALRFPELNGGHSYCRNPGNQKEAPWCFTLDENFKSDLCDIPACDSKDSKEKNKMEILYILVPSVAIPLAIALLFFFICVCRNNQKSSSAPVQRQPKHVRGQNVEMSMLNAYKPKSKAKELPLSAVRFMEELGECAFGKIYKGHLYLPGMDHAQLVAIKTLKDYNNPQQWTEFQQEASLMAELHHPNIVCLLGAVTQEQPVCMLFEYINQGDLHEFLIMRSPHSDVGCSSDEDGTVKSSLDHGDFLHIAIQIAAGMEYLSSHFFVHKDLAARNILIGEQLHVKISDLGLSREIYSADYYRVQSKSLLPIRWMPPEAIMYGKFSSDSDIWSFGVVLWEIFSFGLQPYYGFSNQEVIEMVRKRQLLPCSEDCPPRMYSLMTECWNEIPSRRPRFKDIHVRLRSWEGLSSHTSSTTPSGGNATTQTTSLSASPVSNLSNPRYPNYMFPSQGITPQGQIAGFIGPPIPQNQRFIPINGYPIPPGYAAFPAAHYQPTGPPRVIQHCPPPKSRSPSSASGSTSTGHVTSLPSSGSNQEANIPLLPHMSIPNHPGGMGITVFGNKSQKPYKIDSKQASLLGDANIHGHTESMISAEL
T2 sequence (Q01973 other isoform, or with tags, fused parts or gaps): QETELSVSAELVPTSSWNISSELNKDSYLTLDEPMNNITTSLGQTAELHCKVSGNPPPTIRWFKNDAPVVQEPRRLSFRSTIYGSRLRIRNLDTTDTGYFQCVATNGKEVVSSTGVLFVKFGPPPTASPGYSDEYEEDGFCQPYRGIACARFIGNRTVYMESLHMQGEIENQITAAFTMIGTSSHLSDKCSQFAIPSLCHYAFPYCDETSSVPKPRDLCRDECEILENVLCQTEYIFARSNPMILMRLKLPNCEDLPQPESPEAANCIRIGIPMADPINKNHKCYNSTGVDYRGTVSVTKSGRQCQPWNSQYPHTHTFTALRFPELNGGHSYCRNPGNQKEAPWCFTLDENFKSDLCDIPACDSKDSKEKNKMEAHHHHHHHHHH
T5 sequence (Q01973 other isoform, or with tags, fused parts or gaps limits assumed): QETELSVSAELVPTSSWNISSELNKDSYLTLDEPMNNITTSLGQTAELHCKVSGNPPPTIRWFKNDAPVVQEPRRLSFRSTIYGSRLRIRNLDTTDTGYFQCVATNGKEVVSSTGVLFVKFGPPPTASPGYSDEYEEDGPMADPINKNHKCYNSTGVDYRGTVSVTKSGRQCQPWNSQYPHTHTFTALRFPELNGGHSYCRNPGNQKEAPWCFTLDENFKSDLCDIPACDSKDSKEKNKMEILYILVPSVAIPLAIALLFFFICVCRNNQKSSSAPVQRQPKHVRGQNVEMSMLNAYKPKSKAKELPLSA

B1: UC-961 (antibody, V domains shown)
VH: QVQLQESGPGLVKPSQTLSLTCTVSGYAFTAYNIHWVRQAPGQGLEWMGSFDPYDGGSSYNQKFKDRLTISKDTSKNQVVLTMTNMDPVDTATYYCARGWYYFDYWGHGTLVTVSS
VL: DIVMTQTPLSLPVTPGEPASISCRASKSISKYLAWYQQKPGQAPRLLIYSGSTLQSGIPPRFSGSGYGTDFTLTINNIESEDAAYYFCQQHDESPYTFGEGTKVEIK
notes: Control antibody of US20150232569A1, made with human IgG1 heavy chain constant region and Kappa chain constant region
With B1, the EC50 in [1] was determined as 0.13 nM; in assay [2], 0.21 nM; in assay [3], 0.013 nM; in assay [4], 0.74 nM; in assay [5] it was 0.79 nM; in [6] it was 1.11 nM.

B2: mAb003c (antibody, V domains shown)
VH: EVQLVESGGGLVKPGGSLKLSCAASGFTFSSYAMSWVRQTPEKRLEWVATISDGGSYTYYPDSVKGRFTISRDNAKNNLYLQMSHLKSEDTDMYYCVRGGYYYNLYAMDYWGQGTSVTVSS
VL: DIVLTQSPASLAVSLGQRAIISCKASQSVSFAGTSLMHWYQQKPGQQPKLLIYRASNLEAGVPTRFSGSGSRADFTLNIHPVEEDDAATYYCQQSGEYPWTFGGGTKLEIK
notes: Human-mouse chimeric
For the molecule B2, the 50% effective concentration (EC50) is 0.76 nM in [7]; 1.1 nM in assay [8]; 0.013 nM in assay [9]; 1.47 nM in [10]; 1.74 nM in [5]; 1.78 nM in [6]. Besides, the EC50 in assay [11] was < 2 nM.

B3: mAb005c (antibody, V domains shown)
VH: EVQLVESGGGLVKPGGSLKLSCAASGFTFNSYAMSWVRQTPEKRLEWVATISDGGSYTYYPDNEKGRFTISRDNAKNNLYLQMSHLKSEDTAIYYCVRGGYYYNLYAMDYWGQGTSVTVSS
VL: DIVLTQSPASLAVSLGQRAIISCKASQSVSFPGTSLMHWYQQKPGQQPKLLIYRASNLEAGVPTRFSGSGSRTDFTLNIHPVEEDDTATYYCQQSREYPWTFGGGTQLEIK
notes: Human-mouse chimeric
On to B3, for which the concentration giving a half-maximal response (EC50) worked out at 0.18 nM in assay [1]; 0.24 nM in assay [2]; 0.009 nM in assay [3]; 0.57 nM in assay [4]; 0.91 nM in [5]; 1.02 nM in assay [6]. In [11], the half-maximal effective concentration (EC50) was < 2 nM.

B4: mAb001c-vcMMAE (antibody, human IgG1, DAR about 3.81, V domains shown)
VH: EVRLQQSGPVLVKPGASVKMSCKASGYTFTDYNLHWVKQSHRQSLEWIGYINPNHDGTSYNQKFQGKATLTVDRSSSTAYMEFRSLTSEDSAVYYCARRVRTGTGLDDWGQGTTLTVSS
VL: DVLMTQSPLSLPVSLGDQASISCRSSHNIVHTNGNTYLEWYLQKPGQSPKLLIYKVSNRFSGVPDRFSGSGSGTYFTLTISRVEAEDLGVYYCFQGSRFPYTFGGGTKLEIK
modifications: vcMMAE on cysteines after TCEP reduction, positions not given
In the case of B4, in [12], the “in vitro anti-proliferative activity IC50, HCC827 cells (CCK8)” value was < 10 nM; the “in vitro anti-proliferative activity IC50, HCC1187 cells (CCK8)” value is < 10 nM; the “in vitro anti-proliferative activity IC50, HT-29 cells (CCK8)” value was < 10 nM; the “in vitro anti-proliferative activity IC50, MCF-7 cells (CCK8)” value is > 100 nM. In addition, in assay [12], the “in vitro anti-proliferative activity IC50, MDA-MB-231 cells (CCK8)” value is < 10 nM; the “in vitro anti-proliferative activity IC50, NCI-H446 cells (CCK8)” value was < 10 nM; the “in vitro anti-proliferative activity IC50, NCI-N87 cells (CCK8)” value was < 10 nM.

B5: mAb006c (antibody, V domains shown)
VH: EVQLQQSGPELVKPGASLKMSCKASGYTFPDYNIHWVKQSHGKSLEWIGYINPNNGGTTYNQKFKGKATLTVSKSSSTAYMELRSLTSEDSAVYSCARRGYGSSYAMDYWAQGTSVTVSS
VL: DVLMTQSPLSLPVSLGDQASISCRSSHIIVHTNGNTYLEWYLQKPGQSPKLLIYKVSNRFSGVPDRFSGSGSGTDFTLKISRVEAEDLGVYYCFQGSRVPYTFGGGTKLEIK
notes: Human-mouse chimeric
Take B5: the EC50 in assay [7] came to 0.28 nM; in assay [8], 0.4 nM; in assay [9] it was 0.009 nM; in assay [10], 0.71 nM; in assay [13], 0.37 nM; in [5], 1.59 nM. Also, the half-maximal effective concentration (EC50) is 1.64 nM in assay [6] and < 2 nM in [11].

B6: mAb007c (antibody, V domains shown)
VH: EVQLQQSGPELVKPGASVKMSCKASGYTFTDYNMHWVKQSHGKSLEWIGYINPNNGGTSYNQKFKGKATLTVNKSSSTAYMELRSLTSDDSAVYYCARRGYGSGYAMDYWGQGTSVTVSS
VL: DVLMTQTPLSLPVSLGDQASISCRSSQSIVHTNGNTYLEWYLQNPGQSPKLLIYKVFNRFSGVPDRFSGSGSGTDFTLKISRVEAEDLGVYYCFQGSLFPYTFGGGTKLEIK
notes: Human-mouse chimeric
In the case of B6, the EC50 in assay [7] is 0.28 nM; in assay [8], 0.25 nM; in assay [9], 0.012 nM; in [10], 0.54 nM; in assay [13] it was 0.36 nM; in assay [5] it was 1.03 nM. The results for the half-maximal effective concentration (EC50) in assay [6] and in assay [11] were 1.25 nM and < 2 nM, respectively.

B7: mAb007 (antibody, IgG2b, V domains shown)
VH: EVQLQQSGPELVKPGASVKMSCKASGYTFTDYNMHWVKQSHGKSLEWIGYINPNNGGTSYNQKFKGKATLTVNKSSSTAYMELRSLTSDDSAVYYCARRGYGSGYAMDYWGQGTSVTVSS
VL: DVLMTQTPLSLPVSLGDQASISCRSSQSIVHTNGNTYLEWYLQNPGQSPKLLIYKVFNRFSGVPDRFSGSGSGTDFTLKISRVEAEDLGVYYCFQGSLFPYTFGGGTKLEIK
notes: Mouse monoclonal antibody, IgG2b/k
Turning to B7, the values for the EC50 in assay [8] and in assay [14] were 0.15 nM and 0.066 nM, respectively.

B8: mAb006 (antibody, IgG2b, V domains shown)
VH: EVQLQQSGPELVKPGASLKMSCKASGYTFPDYNIHWVKQSHGKSLEWIGYINPNNGGTTYNQKFKGKATLTVSKSSSTAYMELRSLTSEDSAVYSCARRGYGSSYAMDYWAQGTSVTVSS
VL: DVLMTQSPLSLPVSLGDQASISCRSSHIIVHTNGNTYLEWYLQKPGQSPKLLIYKVSNRFSGVPDRFSGSGSGTDFTLKISRVEAEDLGVYYCFQGSRVPYTFGGGTKLEIK
notes: as for B7
Take B8: the concentration giving a half-maximal response (EC50) turned out to be 0.19 nM in assay [8] and 0.059 nM in [14].

B9: mAb008 (antibody, IgG2b, V domains shown)
VH: EVQLQQSGPELVKPGASVKMSCKASEYTFTDYNMHWVKQSHGKSLEWIGYINPNNGGTTYNQKFKGKATLTVNKSSSTAYMELRSLTSDDSAVYYCARRGYGSGYAMDYWGQGASVTVSS
VL: DVLLTQTPLSLPVSLGDRASISCTSSQSIVHTNGNTYLEWYLQNPGQSPKLLIYKVSNRFSGVPDRFSGSGSGTDFTLKISRVEAEDLGVYYCFQGSLFPYTFGGGTKLEIK
notes: as for B7
On to B9, for which the EC50 in [8] was determined as 0.11 nM; in assay [14] it was 0.053 nM.

B10: mAb009c (antibody, V domains shown)
VH: EVQLQQSGPELVKPGASLKLSCKASGYTFPDYNIHWVKQSHGKSLEWIGYINPNNGNTNYNQKFEGKATLTVSKSSSTAYMELRSLTSDDSAVYSCARRGYGSSYAMDFWGQGTSVTVSS
VL: DVLMTQTPLSLPVSLGNQASISCRSSHIIVHTNGNTYLEWYLQKPGQSPKLLIYKVSNRFSGVPDRFSGSGSGTDFTLKISRVEAEDLGVYYCFQGSRVPYTFGGGTKLEIK
notes: Human-mouse chimeric
For the molecule B10, the EC50 in assay [7] stood at 0.25 nM; in assay [8], 0.33 nM; in [9], 0.017 nM; in assay [10], 0.79 nM; in assay [13], 0.45 nM; in assay [5], 1.62 nM. The half-maximal effective concentration (EC50) in assay [6] was 1.68 nM; in assay [11], < 2 nM.

B11: mAb009 (antibody, IgG2b, V domains shown)
VH: EVQLQQSGPELVKPGASLKLSCKASGYTFPDYNIHWVKQSHGKSLEWIGYINPNNGNTNYNQKFEGKATLTVSKSSSTAYMELRSLTSDDSAVYSCARRGYGSSYAMDFWGQGTSVTVSS
VL: DVLMTQTPLSLPVSLGNQASISCRSSHIIVHTNGNTYLEWYLQKPGQSPKLLIYKVSNRFSGVPDRFSGSGSGTDFTLKISRVEAEDLGVYYCFQGSRVPYTFGGGTKLEIK
notes: as for B7
Regarding B11, the EC50 in assay [8] was determined as 0.16 nM; in assay [14], 0.062 nM.

B12: mAb008c (antibody, V domains shown)
VH: EVQLQQSGPELVKPGASVKMSCKASEYTFTDYNMHWVKQSHGKSLEWIGYINPNNGGTTYNQKFKGKATLTVNKSSSTAYMELRSLTSDDSAVYYCARRGYGSGYAMDYWGQGASVTVSS
VL: DVLLTQTPLSLPVSLGDRASISCTSSQSIVHTNGNTYLEWYLQNPGQSPKLLIYKVSNRFSGVPDRFSGSGSGTDFTLKISRVEAEDLGVYYCFQGSLFPYTFGGGTKLEIK
notes: Human-mouse chimeric
Consider B12, for which the EC50 in assay [7] was 0.36 nM; in [8] it was 0.78 nM; in [9] it was 0.02 nM; in assay [10], 0.7 nM; in assay [13], 0.37 nM; in assay [5], 1.5 nM. Further, the values for the EC50 in assay [6] and in assay [11] were 1.67 nM and < 2 nM, respectively.
